Results: patent US20240261333A1 (published 2024)

Key:
Test in all cases: anti-FLAG co-IP from lysate of N-FLAG B3GNT2 cells, mass spectrometry
NTPCR = target: T1, NTPCR (human, UniProt Q9BSD7 2-190)
T1 construct: also called NP_001316381.1 (+2)
T1 sequence (looked up): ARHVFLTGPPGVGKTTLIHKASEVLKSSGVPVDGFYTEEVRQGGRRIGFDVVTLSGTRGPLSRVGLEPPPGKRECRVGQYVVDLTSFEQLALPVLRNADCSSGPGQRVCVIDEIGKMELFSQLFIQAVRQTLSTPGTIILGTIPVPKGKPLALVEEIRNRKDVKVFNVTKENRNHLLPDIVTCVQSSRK
Method: (§1) Cells were plated in 10-cm cell culture dishes and grown to 60-80% confluency. For each condition, two biological replicates were harvested for co-IP. Cells were washed with PBS and 4 mL of lysis buffer (20 mM HEPES, 1% Triton X-100, 150 mM NaCl, 1 mM EDTA, and 10% glycerol) containing protease inhibitor cocktail was added. Cells were scraped and lysate was incubated at 4° C. under rotary agitation for 1 h. Lysate was centrifuged at 14,000×g for 10 min at 4° C. Supernatant was transferred to a new tube and an aliquot was taken as the input. […] For Western blots, 10 μg/mL Chicken Anti-FLAG (Aves labs ET-DY100) and IgY control (R&D Systems AB-101-C) antibodies were biotinylated (Thermo Fisher Scientific 90407) and added to the respective conditions. Lysates with antibodies were incubated at 4° C. under rotary agitation overnight. For each mL of lysate, 50 μL of Pierce Protein A/G Magnetic Beads (Mass spectrometry; Thermo Fisher Scientific 88803) or Pierce Streptavidin Magnetic Beads (Western blot; Thermo Fisher Scientific 88817) was washed twice with lysis buffer. Lysates with antibodies were added to the beads and incubated at 4° C. under rotary agitation for 4 h. Beads were washed with lysis buffer 3 times and resuspended in lysis buffer for storage.
(§2) Magnetic beads were resuspended in 100 mM Tris pH 7.8, reduced, alkylated and digested with trypsin at 37° ° C. overnight. This solution was subjected to solid phase extraction to concentrate the peptides and remove unwanted reagents followed by injection onto a Shimadzu HPLC with fraction collector. Eight fractions were collected and after concentration were injected on a Waters NanoAcquity HPLC equipped with a self-packed Aeris 3 μm C18 analytical column 0.075 mm by 20 cm, (Phenomenex). Peptides were eluted using standard reverse-phase gradients. The effluent from the column was analyzed using a Thermo Orbitrap Elite mass spectrometer (nanospray configuration) operated in a data dependent manner for 54 minutes. The resulting fragmentation spectra were correlated against the known database using Proteome Discover 1.4 (Thermo Fisher Scientific).

UBTF = target: T2, UBTF (human, UniProt P17480-2 1-727, limits assumed)
T2 construct: also called NP_001070151.1 (+3)
T2 sequence (looked up): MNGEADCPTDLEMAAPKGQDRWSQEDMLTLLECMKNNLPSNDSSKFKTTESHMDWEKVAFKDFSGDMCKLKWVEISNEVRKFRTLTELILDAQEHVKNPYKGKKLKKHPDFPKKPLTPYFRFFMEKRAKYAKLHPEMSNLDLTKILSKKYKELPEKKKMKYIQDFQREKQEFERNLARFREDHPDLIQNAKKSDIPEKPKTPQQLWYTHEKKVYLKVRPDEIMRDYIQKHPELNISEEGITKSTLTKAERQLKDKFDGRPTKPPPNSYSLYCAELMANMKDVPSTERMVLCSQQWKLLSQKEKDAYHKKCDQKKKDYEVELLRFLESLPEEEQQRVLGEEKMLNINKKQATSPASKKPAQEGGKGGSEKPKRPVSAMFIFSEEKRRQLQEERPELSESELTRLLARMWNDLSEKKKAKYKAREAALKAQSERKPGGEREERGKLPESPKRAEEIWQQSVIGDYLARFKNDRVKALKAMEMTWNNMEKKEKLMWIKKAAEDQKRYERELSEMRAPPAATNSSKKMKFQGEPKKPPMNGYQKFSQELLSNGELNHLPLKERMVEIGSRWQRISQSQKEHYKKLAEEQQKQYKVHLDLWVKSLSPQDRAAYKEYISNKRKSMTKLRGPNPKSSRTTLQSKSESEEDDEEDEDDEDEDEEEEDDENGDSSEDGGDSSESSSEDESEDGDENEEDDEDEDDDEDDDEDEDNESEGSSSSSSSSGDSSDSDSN
Method: as §1, §2

HDGFL2 = target: T3, HDGFL2 (human, UniProt Q7Z4V5 1-671)
T3 construct: also called NP_001001520.1 (+4)
Method: as §1, §2

TRAFD1 = target: T4, TRAFD1 (human, UniProt O14545 2-582)
T4 construct: also called NP_006691.1
T4 sequence (looked up): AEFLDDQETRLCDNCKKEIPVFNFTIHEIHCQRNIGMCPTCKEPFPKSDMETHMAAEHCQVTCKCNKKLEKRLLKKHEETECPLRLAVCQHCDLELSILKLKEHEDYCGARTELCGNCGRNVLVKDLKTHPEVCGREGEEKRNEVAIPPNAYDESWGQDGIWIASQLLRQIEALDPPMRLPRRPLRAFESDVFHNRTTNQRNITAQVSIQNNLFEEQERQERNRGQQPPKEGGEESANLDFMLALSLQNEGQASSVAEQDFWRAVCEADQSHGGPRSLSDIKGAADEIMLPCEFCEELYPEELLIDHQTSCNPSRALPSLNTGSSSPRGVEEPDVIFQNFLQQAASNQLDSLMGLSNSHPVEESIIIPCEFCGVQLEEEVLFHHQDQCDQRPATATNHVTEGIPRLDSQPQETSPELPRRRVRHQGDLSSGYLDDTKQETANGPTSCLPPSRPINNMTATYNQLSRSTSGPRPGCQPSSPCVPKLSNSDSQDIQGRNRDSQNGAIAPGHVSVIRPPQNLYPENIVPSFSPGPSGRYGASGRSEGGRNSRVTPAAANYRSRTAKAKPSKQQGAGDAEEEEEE
Method: as §1, §2

T3 sequence (Q7Z4V5 whole entry): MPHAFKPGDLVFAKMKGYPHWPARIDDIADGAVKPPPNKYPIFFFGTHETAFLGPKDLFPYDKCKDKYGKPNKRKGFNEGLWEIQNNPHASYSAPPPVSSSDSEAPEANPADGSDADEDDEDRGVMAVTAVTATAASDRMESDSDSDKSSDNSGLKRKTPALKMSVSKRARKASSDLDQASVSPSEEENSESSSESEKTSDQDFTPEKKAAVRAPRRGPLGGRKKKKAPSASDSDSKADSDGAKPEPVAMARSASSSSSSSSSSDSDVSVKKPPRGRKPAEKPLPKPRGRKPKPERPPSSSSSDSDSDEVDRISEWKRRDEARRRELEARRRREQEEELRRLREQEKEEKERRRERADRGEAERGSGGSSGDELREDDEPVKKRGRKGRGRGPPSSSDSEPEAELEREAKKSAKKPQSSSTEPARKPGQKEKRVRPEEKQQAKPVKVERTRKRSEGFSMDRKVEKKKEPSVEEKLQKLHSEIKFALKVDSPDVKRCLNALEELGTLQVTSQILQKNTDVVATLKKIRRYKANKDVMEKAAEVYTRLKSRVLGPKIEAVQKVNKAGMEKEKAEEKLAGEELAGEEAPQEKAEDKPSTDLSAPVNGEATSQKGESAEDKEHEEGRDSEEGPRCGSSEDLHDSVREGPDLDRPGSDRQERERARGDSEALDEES

co-IP mass spectrometry count (NTPCR): 0
co-IP mass spectrometry count (UBTF): 0
co-IP mass spectrometry count (HDGFL2): 0
co-IP mass spectrometry count (TRAFD1): 0
B1: N-terminal FLAG tagged B3GNT2 (enzyme, human, UniProt Q9NY97 1-397, looked up)
chain: MSVGRRRIKLLGILMMANVFIYFIMEVSKSSSQEKNGKGEVIIPKEKFWKISTPPEAYWNREQEKLNRQYNPILSMLTNQTGEAGRLSNISHLNYCEPDLRVTSVVTGFNNLPDRFKDFLLYLRCRNYSLLIDQPDKCAKKPFLLLAIKSLTPHFARRQAIRESWGQESNAGNQTVVRVFLLGQTPPEDNHPDLSDMLKFESEKHQDILMWNYRDTFFNLSLKEVLFLRWVSTSCPDTEFVFKGDDDVFVNTHHILNYLNSLSKTKAKDLFIGDVIHNAGPHRDKKLKYYIPEVVYSGLYPPYAGGGGFLYSGHLALRLYHITDQVHLYPIDDVYTGMCLQKLGLVPEKHKGFRTFDIEEKNKNNICSYVDLMLVHSRKPQEMIDIWSQLQSAHLKC
notes: Bait of the co-IP; pulled down from cell lysate with mouse anti-FLAG antibody; also called N-FLAG B3GNT2; N-term FLAG; not shown: N-terminal FLAG tag
